Measured values taken from patent US20230414780A1 (VECT HORUS, published 2023).

Experiments:
[1] = target: T1, mouse transferrin receptor (mTfR) fused to EGFP, on CHO cells (mouse, UniProt Q62351 1-763); assay: flow cytometry, CHO cells
T1 construct: whole, on cells; also called mouse TfR; CHO-mTfR-EGFP; not shown: EGFP
Description: The binding properties of VHHs with affinity for the TfR from different species (i.e., human (h), mouse (m) and rhesus monkey (rh)) were tested using flow cytometry, and apparent affinities (Kd app) were determined. All experiments were performed in 96 well plates using 2×10⁵ cells/well, at 4° C. with shaking. CHO cell lines expressing the hTfR, mTfR or rhTfR fused to EGFP were saturated with PBS/BSA 2% solution during 30 min to avoid nonspecific binding, followed by incubation with purified VHHs at increasing concentrations for 1 hr. After one wash in PBS/BSA 2%, cells were incubated for 1 hr with an anti-6His tag antibody (mouse), washed twice with PBS/BSA 2%, and incubated for 1 hr with an Alexa647-conjugated anti-mouse secondary antibody. After two last washes in PBS/BSA 2%, cells were fixed by incubation for 15 min with PBS/PFA 2%, washed once with PBS and finally resuspended in PBS. Fluorescence levels were assessed using an Attune NxT flow cytometer (Thermo Fisher Scientific). Experimental data were fitted with GraphPad Prism® software using a nonlinear fit to determine the apparent Kd constants. […] Table 5 hereafter summarizes apparent Kd obtained for the tested VHHs.

[2] = target: T2, human TfR ectodomain fused to a mouse IgG1 Fc fragment (human, UniProt P02786 89-760); assay: SPR, kinetic
T2 construct: extracellular domain; ectodomain fused to the N-terminal end of the Fc, made in-house; not shown: mouse IgG1 Fc fragment
T2 sequence (P02786 89-760): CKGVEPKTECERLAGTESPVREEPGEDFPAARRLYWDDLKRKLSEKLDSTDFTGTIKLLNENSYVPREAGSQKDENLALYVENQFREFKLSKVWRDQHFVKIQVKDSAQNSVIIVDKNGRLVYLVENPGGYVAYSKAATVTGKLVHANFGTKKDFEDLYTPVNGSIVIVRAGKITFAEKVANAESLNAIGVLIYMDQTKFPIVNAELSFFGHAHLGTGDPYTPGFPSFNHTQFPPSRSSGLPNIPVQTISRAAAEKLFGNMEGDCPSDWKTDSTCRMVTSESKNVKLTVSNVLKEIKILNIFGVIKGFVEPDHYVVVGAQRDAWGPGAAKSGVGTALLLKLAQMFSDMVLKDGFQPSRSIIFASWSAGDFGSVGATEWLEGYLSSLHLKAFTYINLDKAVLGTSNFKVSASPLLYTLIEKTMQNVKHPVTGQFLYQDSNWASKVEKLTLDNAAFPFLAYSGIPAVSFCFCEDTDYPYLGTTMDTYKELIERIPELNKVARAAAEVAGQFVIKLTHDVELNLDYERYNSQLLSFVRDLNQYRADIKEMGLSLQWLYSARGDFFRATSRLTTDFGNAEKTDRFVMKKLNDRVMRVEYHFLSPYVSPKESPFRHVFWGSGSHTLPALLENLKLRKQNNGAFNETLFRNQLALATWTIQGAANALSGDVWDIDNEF
Description: (§1) Binding properties of some VHHs were also evaluated using Surface Plasmon Resonance (SPR) experiments. The human, mouse and rhesus monkey TfR (having respectively GeneBank number NM_003234.2, NM_011638, NC_041755.1) ectodomains were fused to the N-terminal end of a mouse IgG1 Fc fragment and the recombinant proteins were produced and purified in-house. Interaction of VHHs with the receptors was tested using a Biacore T200 (GE Healthcare). Receptors were immobilized on an HC 1500M or a CM5 sensor chip (Xantec) either directly or on an anti-mouse IgG previously immobilized. VHHs were injected over flowcell by using the single-cycle kinetic or the multiple-cycle kinetic methods.

[3] = target: T3, human transferrin receptor (hTfR) fused to EGFP, on CHO cells (human, UniProt P02786 1-760); assay: apparent Kd, flow cytometry, CHO cells
T3 construct: whole, on cells; also called human TfR; CHO-hTfR-EGFP; not shown: EGFP from pEGFP-C1 vector, fused to the N-terminal (intracellular) end of hTfR
T3 sequence (P02786 whole entry, the tested form may be a part): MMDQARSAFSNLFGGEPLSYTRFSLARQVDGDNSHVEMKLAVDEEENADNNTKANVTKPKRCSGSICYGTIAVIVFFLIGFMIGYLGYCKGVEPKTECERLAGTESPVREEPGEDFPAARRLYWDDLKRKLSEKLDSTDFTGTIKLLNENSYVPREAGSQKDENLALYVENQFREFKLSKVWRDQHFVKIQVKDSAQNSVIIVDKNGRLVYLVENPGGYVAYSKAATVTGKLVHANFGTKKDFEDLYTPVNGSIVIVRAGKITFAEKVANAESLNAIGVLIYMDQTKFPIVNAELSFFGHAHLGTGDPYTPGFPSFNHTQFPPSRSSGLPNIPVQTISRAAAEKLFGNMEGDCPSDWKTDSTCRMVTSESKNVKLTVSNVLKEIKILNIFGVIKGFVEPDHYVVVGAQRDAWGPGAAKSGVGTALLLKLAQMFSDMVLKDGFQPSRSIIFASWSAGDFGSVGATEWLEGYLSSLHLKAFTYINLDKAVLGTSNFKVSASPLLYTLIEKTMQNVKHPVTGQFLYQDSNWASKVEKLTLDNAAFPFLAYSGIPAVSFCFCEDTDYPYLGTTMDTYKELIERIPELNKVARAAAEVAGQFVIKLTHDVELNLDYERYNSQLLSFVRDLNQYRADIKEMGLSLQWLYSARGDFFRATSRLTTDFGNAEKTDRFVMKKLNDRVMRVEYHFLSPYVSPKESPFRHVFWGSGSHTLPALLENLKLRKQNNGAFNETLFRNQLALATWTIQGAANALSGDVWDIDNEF
Outline: (§2)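 CHO cells expressing TfR-EGFP fusions, blocked in PBS/BSA 2%, then incubated with increasing VHH concentrations for 1 hr at 4° C. Bound VHH detected via anti-6His antibody and Alexa647 secondary, cells PFA-fixed, read by flow cytometry. Apparent Kd from nonlinear fit.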

[4] = target: T2, human TfR ectodomain fused to a mouse …; assay: SPR, at equilibrium
Description: as §1

[5] = target: T4, rhesus monkey transferrin receptor (rhTfR) fused to EGFP, on CHO cells (rhesus monkey); assay: apparent Kd, flow cytometry, CHO cells
T4 construct: whole, on cells; also called rhesus monkey TfR
Outline: as §2

[6] = target: T5, rhesus monkey TfR ectodomain fused to a mouse IgG1 Fc fragment (rhesus monkey, UniProt I0FKY7 89-760); assay: SPR, kinetic
T5 construct: extracellular domain; not shown: mouse IgG1 Fc fragment
Description: as §1

[7] = target: T1, mouse transferrin receptor (mTfR) fused …; assay: apparent Kd, flow cytometry, CHO cells
Outline: as §2

[8] = target: T5, rhesus monkey TfR ectodomain fused to a …; assay: SPR, at equilibrium
Description: as §1

[9] = target: T6, mouse TfR ectodomain fused to a mouse IgG1 Fc fragment (mouse, UniProt Q62351 89-763); assay: SPR, kinetic
T6 construct: extracellular domain; not shown: mouse IgG1 Fc fragment
T6 sequence (Q62351 89-763): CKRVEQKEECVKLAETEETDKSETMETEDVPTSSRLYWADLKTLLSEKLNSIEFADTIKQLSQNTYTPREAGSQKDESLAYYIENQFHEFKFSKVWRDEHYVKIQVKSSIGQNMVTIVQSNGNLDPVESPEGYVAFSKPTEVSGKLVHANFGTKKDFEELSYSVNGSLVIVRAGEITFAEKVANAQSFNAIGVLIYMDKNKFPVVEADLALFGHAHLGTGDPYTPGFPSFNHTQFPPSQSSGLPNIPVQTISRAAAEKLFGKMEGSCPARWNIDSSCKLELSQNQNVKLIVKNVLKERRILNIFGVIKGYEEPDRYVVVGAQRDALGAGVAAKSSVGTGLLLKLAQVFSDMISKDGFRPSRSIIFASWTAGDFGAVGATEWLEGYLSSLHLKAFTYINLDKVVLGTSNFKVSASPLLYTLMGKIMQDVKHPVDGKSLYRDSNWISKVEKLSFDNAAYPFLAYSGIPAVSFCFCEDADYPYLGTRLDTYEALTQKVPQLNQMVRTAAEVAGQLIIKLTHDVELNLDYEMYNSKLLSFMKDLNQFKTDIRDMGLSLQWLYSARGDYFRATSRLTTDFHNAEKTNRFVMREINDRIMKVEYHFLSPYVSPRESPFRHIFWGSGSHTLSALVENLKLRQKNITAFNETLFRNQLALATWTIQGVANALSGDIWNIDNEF
Description: as §1

[10] = target: T6, mouse TfR ectodomain fused to a mouse …; assay: SPR, at equilibrium
Description: as §1

T1 sequence (Q62351 whole entry, the tested form may be a part): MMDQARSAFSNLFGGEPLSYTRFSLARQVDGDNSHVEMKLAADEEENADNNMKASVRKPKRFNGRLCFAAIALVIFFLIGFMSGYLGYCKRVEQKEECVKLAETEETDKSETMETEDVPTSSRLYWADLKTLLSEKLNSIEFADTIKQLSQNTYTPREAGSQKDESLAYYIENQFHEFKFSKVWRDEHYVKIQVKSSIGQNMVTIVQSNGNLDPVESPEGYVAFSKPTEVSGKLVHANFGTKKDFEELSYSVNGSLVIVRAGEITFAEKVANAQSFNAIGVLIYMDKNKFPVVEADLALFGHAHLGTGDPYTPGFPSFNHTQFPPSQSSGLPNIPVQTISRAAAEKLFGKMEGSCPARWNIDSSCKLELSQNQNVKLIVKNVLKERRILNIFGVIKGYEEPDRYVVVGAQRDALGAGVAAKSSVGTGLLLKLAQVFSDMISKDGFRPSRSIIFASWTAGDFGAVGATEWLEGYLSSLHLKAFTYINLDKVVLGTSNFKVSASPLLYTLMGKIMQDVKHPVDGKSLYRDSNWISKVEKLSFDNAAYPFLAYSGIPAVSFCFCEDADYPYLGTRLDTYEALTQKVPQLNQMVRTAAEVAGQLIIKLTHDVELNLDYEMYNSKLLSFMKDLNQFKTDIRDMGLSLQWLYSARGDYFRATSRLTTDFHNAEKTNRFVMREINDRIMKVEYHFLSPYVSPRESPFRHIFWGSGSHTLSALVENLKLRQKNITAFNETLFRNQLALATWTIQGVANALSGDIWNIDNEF

Binder	binding result [1]	Kd [2]	koff [2]	kon [2]	Kd [3]	Kd [5]	other results
F2a (VHH) VHH: EVQLVESGGGLVQPGESLRLSCTASESISIYGVGWYRQAPGEQRVLVAHLKRNGLTEYKDSVKGRFTISRDNARNTIYLEMKNLKPEDTAIYYCNTALGSVLPWGRGTQVTVSS	no binding	0.545 nM	0.000752 s⁻¹	1.39e+06 M⁻¹ s⁻¹	2.9 nM	–	–
C12b (VHH) VHH: QVQLVQSGGGLVQPGGSLRLSCAASGFTFSAYAMSWVRQAPGKGRELVASISRTGDGTYYADGMKGRFTISRDNAENTVSLQINSLKPEDTAIYYCGAGINPTKYWGQGTQVTVSS	no binding	–	–	–	630 nM	–	Kd [4]: 2440 nM
B8^V22 (VHH) VHH: EVQLVESGGGVVQPGGSLRLSCAASGEIFSINQMRWYRQAPGKQREWVAGFTRDGSTNYPDSAKGRFTISRDNAKNTVYLQIDSLKPEDTAVYYCYMLDTWGQGTQVTVSS	no binding	475 nM	–	698000 M⁻¹ s⁻¹	321 nM	971 nM	Kd [4]: 480 nM
B8^V24 (VHH) VHH: EVQLVESGGGVVQPGGSLRLSCAASGEIFSINFMEWYRQAPGKQREWVAGFTRDGSTNYPDSAKGRFTISRDNAKNTVYLQIDSLKPEDTAVYYCYMLDTWGQGTQVTVSS	no binding	–	–	–	1010 nM	–	–
B8^V40 (VHH) VHH: EVQLVESGGGVVQPGGSLRLSCAASGEIKSINFMRWYRQAPGKQREWVSGFTRDGSTNYPDSAKGRFTISRDNAKNTVYLQIDSLKPEDTAVYYCYMLDTWGQGTQVTVSS	–	42.1 nM	0.0283 s⁻¹	672000 M⁻¹ s⁻¹	42 nM	69 nM	Kd [6]: 34.8 nM; koff [6]: 0.02 s⁻¹; kon [6]: 575000 M⁻¹ s⁻¹; Kd [7]: 1580 nM; Kd [8]: 39.8 nM; Kd [4]: 42.5 nM
VHH C (B6) (VHH) VHH: EVQLVESGGGLVQPGGSLRLSCTASGGPIEQYPMGWFRRAPGKERELVASISRSGDGTYYAISSVKGRFTISRDNAENTVFLQMNSLKPDDTAVYYCGAGINPTKIWGQGTQVTVSS	no binding	0.659 nM	0.00121 s⁻¹	1.73e+06 M⁻¹ s⁻¹	2.1 nM	–	–
B6^V2 (VHH) VHH: EVQLVESGGGLVQPGGSLRLSCTASGGPIEQYPMGWFRRAPGKERELVASFSRSGDGTYYAISSVKGRFTISRDNAENTVFLQMNSLKPDDTAVYYCGAGINPTKIWGQGTQVTVSS	no binding	–	–	–	643 nM	–	–
B6^V1 (VHH) VHH: EVQLVESGGGLVQPGGSLRLSCTASGGPIEQYPMGWFRRAPGKERNLVASISRSGDGTYYAISSVKGRFTISRDNAENTVFLQMNSLKPDDTAVYYCGAGINPTKIWGQGTQVTVSS	no binding	–	–	–	2.3 nM	–	–
E4 (VHH) VHH: EVQLVESGGGLVQAGDSLRLSCTASGLPLSNYPMGWFRRAPGKERELIASISRTGDGTYYADSSVKGRFTISRDNAENTVSLQMNSLKPEDTAVYYCGAGINPTKYWGQGTQVTVSS	no binding	1.25 nM	0.00189 s⁻¹	1.51e+06 M⁻¹ s⁻¹	3.1 nM	–	–
B6^V3 (VHH) VHH: EVQLVESGGGLVQPGGSLRLSCTASGGPIEQYPMGWFRRAPGKERELVASSSRSGDGTYYAISSVKGRFTISRDNAENTVFLQMNSLKPDDTAVYYCGAGINPTKIWGQGTQVTVSS	no binding	–	–	–	2.6 nM	–	–
B6^V4 (VHH) VHH: EVQLVESGGGLVQPGGSLRLSCTASGGPIEQYPMGWFRRAPGKERESVASISRSGDGTYYAISSVKGRFTISRDNAENTVFLQMNSLKPDDTAVYYCGAGINPTKIWGQGTQVTVSS	no binding	–	–	–	5.9 nM	–	–
H7 (VHH) VHH: EVQLVESGGGLVQAGGSLRLSCTASGRPISDYPMGWFRRAPGKDRELVASISRTGDGTYYANSMKERFTISRDNAQNTVSLQISSLKPEDTAVYYCGAGINPTRYWGQGTQVTVSS	no binding	1.3 nM	0.00147 s⁻¹	1.13e+06 M⁻¹ s⁻¹	–	–	–
C5^neg (control) (VHH, negative control of C5 with 2 alanines in CDR3) VHH: EVQLVESGGGVVQPGGSLKLSCVASGTDFSINFIRWYRQAPGKQREFVAGFTATGNTNYADSMKGRFTISRDNTKNAVYLQIDSLKPEDTAVYYCAMADKWGQGTQVTVSS	no binding	–	–	–	–	–	–
VHH A3 (C5^V3) (VHH) VHH: EVQLVESGGGVVQPGGSLKLSCVASGTDFSINFIRWYRQAPGKQREFVAGFTAAGNTNYADSMKGRFTISRDNTKNAVYLQIDSLKPEDTAVYYCYMLDKWGQGTQVTVSS	–	–	–	–	–	7 nM	Kd [9]: 83.5 nM; koff [9]: 0.0467 s⁻¹; kon [9]: 647000 M⁻¹ s⁻¹; Kd [7]: 138 nM; Kd [10]: 98.8 nM
C3 (VHH) VHH: EVQLVQSGGGLVQAGGSLRLSCAASGRDFSDTSMAWHRQAPGKERLWVAGIRSGSTSTSYADSVKGRFTISRDDAKNTVYLQMDNLTPEDTAVYFCYSKGYWGQGTQVTVSS	no binding	0.559 nM	0.00249 s⁻¹	5.9e+06 M⁻¹ s⁻¹	–	4230 nM	–
C10a (VHH) VHH: EVQLVESGGGLVQAGDSLRLSCAASGFASHLYAIGWFRQAPGKEREKVSCISSNDGSTYYADSVKGRFTISRDTVKDMVYLQMNSLKPEDTAVYYCATDLTVHCFMAEYDWWGQGTQVTVSS	no binding	44.6 nM	0.00726 s⁻¹	188000 M⁻¹ s⁻¹	4.1 nM	3.2 nM	Kd [6]: 24.6 nM; koff [6]: 0.0178 s⁻¹; kon [6]: 903000 M⁻¹ s⁻¹; Kd [8]: 38.1 nM; Kd [4]: 86.8 nM
H1 (VHH, also called phage-H1 (as tracer)) VHH: EVQLVESGGGLVQPGGSLRLSCAASGFASHLYAIGWFRQAPGKEREKVSCISSNDGSTYYADSVKGRFTISRDTVKDMVYLQMNSLKPEDTAVYYCATDLTVHCFMAEYDWWGQGTQVTVSS	no binding	57.7 nM	0.00554 s⁻¹	108000 M⁻¹ s⁻¹	11 nM	3.7 nM	Kd [6]: 22.2 nM; koff [6]: 0.0109 s⁻¹; kon [6]: 662000 M⁻¹ s⁻¹; Kd [8]: 27.8 nM; Kd [4]: 224 nM
E2 (VHH) VHH: QVQLVQSGGGLVQAGGSLRLSCAASGSIFSDITLAWHRQIPGKEREWVAGISRSGSPSYRDSVKGRFTISRDNAKNTVFLQMNSLEPEDTGVYYCYSRGYWGQGTQVTVSS	no binding	–	–	–	2.5 nM	–	–
B7 (VHH) VHH: QVQLVQSGGGLVQAGGSLTLSCTASGRPLSDYPMGWFRRAPEKERELVASISRTGDGTYYADGMRGRFTISRDNSENTVSLQMNNLKPEDTAVYYCGAGINPTKYWGQGTQVTVSS	no binding	0.652 nM	0.000758 s⁻¹	1.16e+06 M⁻¹ s⁻¹	1.9 nM	–	–
